Experimental data as given in doi:10.1101/2023.11.22.568272, “Sec7 regulatory domains scaffold autoinhibited and active conformations” (bioRxiv, 2023).

Biological target: the molecule itself
Experiment: cryo-EM structure; single-particle cryoEM of purified full-length T. terrestris Sec7 with 2 mM fluorinated fos-choline 8; C2 symmetry for the dimer consensus map (5.3 Å), focused monomer map 3.7 Å, composite dimer model

B1: full-length Sec7 from Thielavia terrestris (natural protein)
chain: MEQKLISEEDLNSAVDHHHHHHRIPGLINSSLKFVVSSLDIIAAQAGRNKQLAELAEKALAAIKENDQQLPDPEVVFAPLQLATKSGTIPLTTTALDCIGKLISYSYFSAPSSSATQDGTEQTPLIERAIDTICDCFQGETTLVEIQLQIVKSLLAAVLNDKIIVHGAGLLKAVRQVYNIFLLSRSTANQQVAQGTLTQMVGTVFERVKTRLHMKEARANLGRLKASRSSLAVDRSDDQDSQAGKVDGEDATVETVSDATPSESVDKAGGGKLTLKDLEHRKSFDDSHMGDGPTMVSQVKPMKKASRSVSEQSLQESPQDETPESLDAEDEAYIRDAYLVFRSFCNLSTKILPPDQLYDLRGQPMRSKLISLHLIHTLLNNHITVFTSPLCTIRNTKNNEPTNFLQAIKYYLCLSITRNGASSVDRVFDICCEIFWLMLKYMRSSFKNEIEVFLNEIYLALLARRNAPLSQKLTFVGILKRLCEDPRALVELYLNYDCNQNVDNIFQTIVEDLSRFATASVPITPTQEQQYEESRSKSATAGEWQIKSVLPPPLSVALIATNHEADTELPKEYVMKRTALDSLVETLRSLVHWSQPGRPELNGASGDVQRRTSSDDLGDSIDPSMSETASRMEVPIAPATPVIDDDPDQLEKEKARKTAMTNAIKVFNFKPKHGIKLLIKEGFIPSDKPEDIARFLLREERLDKAQIGEYLGEGDQKNVDIMHAFVDMMDFSKKRFVDALREFLQAFRLPGEAQKIDRFMLKFAHRYVTGNPNAFANADTPYVLAYSVIMLNTDLHSSKVVKRMSKAEFIKNNRGINDNADLPDEYLIGIYDDIASNEIVLKSEREAAAAAGTLPAQSTGLAGLGQAFSNVGRDLQREAYVQQSEEISLRSEQLFRDLYRSQRKSATKGGVKFISATSFKHVGPMFDATWMSFFSTLSSLVQKTHNLDVNKLCLEGMKLATKIACLFDLSTPREAFISMLKNTANLNNPREMQAKNVEALKVLLDLAQTEGNYLKESWKDVLLCISQLDRLQLISGGVDESAVPDVSRARFVPPPRTETGESRKSTSSARRTRPRAHTGPQGVSLEIALESRSDEVIKSVDRIFTNTANLSRDAIIHFARALTEVSWDEIKVSGSNDSPRTYSLQKIVEISYYNMTRVRFEWSHIWDVLGEHFNRVGCHANTAIVFFALDSLRQLSMRFMEIEELAGFKFQKDFLKPFEHVMSNSSNVTVKDMVLRCLIQMIQARGENIRSGWRTMFGVFTVAAREPYESIVNLAYENVTQVYKTRFGVVISQGAFTDLIVCLTEFSKNMRFQKKSLQAMETLKSVIPTMLKTPECPLSQHKPTATTASGSESHSKKAAVQQTRTSVEEGFWFPVLFAFHDVLMTGEDLEVRSNALNYFFETLLRYGGDFPPEFWDILWRQQLYPIFMVLRSRPEMTNALNHEELSVWLSTTMIQALRNMITLFTHYFDALEYMLDRFLELLALCICQENDTIARIGSNCLQQLILQNVTKFTAEHWAKIVGAFCELFERTTAYQLFSATTINSTASLSPPPSGLELGGPLSPTSATAPVDGKSLKINGVETNGQTPGAEPANGDADGNGTAAAAADASAPAATPQPQQGPAQQLEEFKPNNPLQQQPVVVTAARRRFFNRIISRCVLQLLMIETVNELFSNDAVYAQIPSAELLRLMALLKKSFLFAKRFNADKDLRMRLWREGFMKQPPNLLKQESGSAATYVAILFRMFGDTAPDRRGSRADVEAALVPLCRDIIRGYTALDDESQHRNIVAWRPVVVDVLEGYAAFPRDAFAAHIRSFYPLVVELLGKDLGQDLRAALLLVLRRVGEVGLGIEGMGSGGAAAAAAAGAAAASSGQGNGNGAAAAAADSERRSSVLSVPSGPRHTPSMDSLNDDPSRQVMGKAEQKLISEEDLNSAVDHHHHHH
stoichiometry N: 2
